Patent US20170327598A1 (published 2017)
Read-outs that look alike come from different tables or passages of the source.

Assays:
Assay in all cases: sandwich ELISA, STAT protein coated at 0.5 µg/mL
[1] = molecular target: T1, STAT 3 protein (UniProt P40763 1-770, limits assumed)
[2] = molecular target: T2, STAT 1 protein (UniProt P42224 1-750, limits assumed)
T2 sequence (looked up): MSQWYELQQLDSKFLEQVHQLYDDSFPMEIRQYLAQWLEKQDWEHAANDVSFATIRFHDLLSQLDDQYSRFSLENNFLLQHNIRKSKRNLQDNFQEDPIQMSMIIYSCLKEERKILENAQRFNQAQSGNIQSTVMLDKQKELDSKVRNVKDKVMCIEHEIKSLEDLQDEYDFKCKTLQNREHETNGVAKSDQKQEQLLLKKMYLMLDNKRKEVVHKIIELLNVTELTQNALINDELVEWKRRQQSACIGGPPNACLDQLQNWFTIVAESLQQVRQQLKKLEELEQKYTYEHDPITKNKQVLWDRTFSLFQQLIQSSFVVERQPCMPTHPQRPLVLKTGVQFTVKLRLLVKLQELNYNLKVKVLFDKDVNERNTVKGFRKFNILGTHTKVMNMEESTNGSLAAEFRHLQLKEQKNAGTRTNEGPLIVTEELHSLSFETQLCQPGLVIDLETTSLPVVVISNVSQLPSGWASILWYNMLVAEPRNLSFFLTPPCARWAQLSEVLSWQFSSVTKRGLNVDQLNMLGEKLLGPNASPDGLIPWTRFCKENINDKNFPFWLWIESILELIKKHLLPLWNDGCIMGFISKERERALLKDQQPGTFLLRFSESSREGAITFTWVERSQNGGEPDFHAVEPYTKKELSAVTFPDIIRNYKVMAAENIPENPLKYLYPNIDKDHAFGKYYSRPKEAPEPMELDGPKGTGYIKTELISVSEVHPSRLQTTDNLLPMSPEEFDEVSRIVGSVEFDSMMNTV

[3] = molecular target: T1, STAT 3 protein; remark: listed apart in the source
[4] = molecular target: T3, STAT 5a protein (UniProt P42229 1-794, limits assumed)
T3 sequence (looked up): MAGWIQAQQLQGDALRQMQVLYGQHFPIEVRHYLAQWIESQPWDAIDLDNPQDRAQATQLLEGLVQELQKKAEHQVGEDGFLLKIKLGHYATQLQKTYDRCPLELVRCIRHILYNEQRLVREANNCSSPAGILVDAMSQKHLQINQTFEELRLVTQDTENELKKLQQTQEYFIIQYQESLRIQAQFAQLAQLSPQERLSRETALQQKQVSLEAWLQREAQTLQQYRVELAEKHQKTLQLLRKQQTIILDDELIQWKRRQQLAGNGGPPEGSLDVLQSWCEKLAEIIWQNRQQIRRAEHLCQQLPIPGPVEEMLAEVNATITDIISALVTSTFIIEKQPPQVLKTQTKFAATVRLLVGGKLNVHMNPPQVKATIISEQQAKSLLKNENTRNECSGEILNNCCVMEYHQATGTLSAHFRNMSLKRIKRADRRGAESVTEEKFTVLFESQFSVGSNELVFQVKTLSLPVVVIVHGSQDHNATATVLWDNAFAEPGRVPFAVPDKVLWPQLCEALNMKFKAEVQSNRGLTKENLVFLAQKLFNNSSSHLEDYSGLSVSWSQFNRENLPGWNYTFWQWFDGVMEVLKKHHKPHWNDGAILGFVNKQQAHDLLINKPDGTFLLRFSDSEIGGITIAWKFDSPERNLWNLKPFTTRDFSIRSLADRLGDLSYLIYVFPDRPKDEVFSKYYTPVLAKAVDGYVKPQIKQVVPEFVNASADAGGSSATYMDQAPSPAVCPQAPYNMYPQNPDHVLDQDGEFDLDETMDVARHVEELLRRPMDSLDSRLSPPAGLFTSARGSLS

[5] = molecular target: T2, STAT 1 protein; remark: listed apart in the source
[6] = molecular target: STAT 2 protein (UniProt P52630 1-851, limits assumed)
Sequence of STAT 2 protein (P52630 whole entry): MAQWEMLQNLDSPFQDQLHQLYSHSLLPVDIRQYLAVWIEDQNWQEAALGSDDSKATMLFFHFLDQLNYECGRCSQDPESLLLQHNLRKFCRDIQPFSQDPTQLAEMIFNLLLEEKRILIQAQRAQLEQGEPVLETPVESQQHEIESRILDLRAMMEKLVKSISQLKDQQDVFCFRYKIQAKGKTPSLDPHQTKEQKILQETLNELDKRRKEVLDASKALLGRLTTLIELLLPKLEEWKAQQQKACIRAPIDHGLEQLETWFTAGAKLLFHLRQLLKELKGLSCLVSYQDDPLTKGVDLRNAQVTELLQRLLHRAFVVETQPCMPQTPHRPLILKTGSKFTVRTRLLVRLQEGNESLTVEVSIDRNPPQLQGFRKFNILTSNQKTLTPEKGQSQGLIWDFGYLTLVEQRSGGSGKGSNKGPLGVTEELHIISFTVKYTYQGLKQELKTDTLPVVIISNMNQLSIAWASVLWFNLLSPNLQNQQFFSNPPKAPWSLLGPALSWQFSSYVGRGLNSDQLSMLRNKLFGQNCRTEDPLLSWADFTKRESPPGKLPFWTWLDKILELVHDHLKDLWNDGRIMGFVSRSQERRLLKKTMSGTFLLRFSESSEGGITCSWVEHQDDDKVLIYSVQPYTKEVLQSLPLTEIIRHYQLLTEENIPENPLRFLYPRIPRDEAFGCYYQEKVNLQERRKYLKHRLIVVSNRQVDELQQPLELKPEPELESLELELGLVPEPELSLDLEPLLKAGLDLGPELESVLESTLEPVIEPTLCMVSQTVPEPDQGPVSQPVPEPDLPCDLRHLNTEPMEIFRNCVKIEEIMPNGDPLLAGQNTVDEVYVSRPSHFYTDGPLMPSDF

[7] = molecular target: T1, STAT 3 protein; remark: listed apart in the source
[8] = molecular target: T4, STAT 4 protein (UniProt Q14765 1-748, limits assumed)
T4 sequence (looked up): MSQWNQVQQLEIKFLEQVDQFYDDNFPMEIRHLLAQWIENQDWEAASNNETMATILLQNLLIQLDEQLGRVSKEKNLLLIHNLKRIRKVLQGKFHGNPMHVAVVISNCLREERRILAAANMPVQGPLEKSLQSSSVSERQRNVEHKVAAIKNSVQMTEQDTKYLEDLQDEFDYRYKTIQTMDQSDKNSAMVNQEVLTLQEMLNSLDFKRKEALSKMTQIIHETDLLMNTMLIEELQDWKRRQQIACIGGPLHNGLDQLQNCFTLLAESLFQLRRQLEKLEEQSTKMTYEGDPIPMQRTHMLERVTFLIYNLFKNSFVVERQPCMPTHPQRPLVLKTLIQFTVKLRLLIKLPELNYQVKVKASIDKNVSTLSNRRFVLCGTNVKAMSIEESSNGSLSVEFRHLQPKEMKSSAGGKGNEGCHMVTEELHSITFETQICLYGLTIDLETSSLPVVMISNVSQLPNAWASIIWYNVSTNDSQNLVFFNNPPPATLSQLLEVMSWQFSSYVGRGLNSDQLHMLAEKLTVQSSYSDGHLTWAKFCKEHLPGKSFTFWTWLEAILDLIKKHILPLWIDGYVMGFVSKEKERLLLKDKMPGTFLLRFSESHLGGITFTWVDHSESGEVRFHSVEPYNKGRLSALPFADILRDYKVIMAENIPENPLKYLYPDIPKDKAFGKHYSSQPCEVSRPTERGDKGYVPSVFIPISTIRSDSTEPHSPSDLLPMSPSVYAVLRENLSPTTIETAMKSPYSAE

[9] = molecular target: T3, STAT 5a protein; remark: listed apart in the source

Mean OD450 [1]: 2.76 OD450
Mean OD450 [2]: 3.16 OD450
Mean OD450 [3]: 3.67 OD450
Mean OD450 [4]: 3.32 OD450
Mean OD450 [5]: 0.026 OD450
Mean OD450 [6]: 0.023 OD450
Mean OD450 [7]: 0.063 OD450
Mean OD450 [8]: 0.083 OD450
Mean OD450 [9]: 0.107 OD450
B1: anti-STAT3 VHH13 (SEQ ID NO:3) sdAb (VHH)
VHH: HVQLVESGGGSVQAGGSLRLSCAASGANGGRSCMGWFRQVPGKEREGVSGISTGGLITYYADSVKGRFTISQDNTKNTLYLQMNSLKPEDTAMYYCATSRFDCYRGSWFNRYMYNSWGQGTQVTVSS
